Experimental data: paper PMC5146998

Target: CTF2 mutant MUT9 (3xFLAG-tagged) (chicken) (UniProt Q90762)
Assay: co-IP

Chain of UniProt Q90762 (Q90762 637-790, change not shown): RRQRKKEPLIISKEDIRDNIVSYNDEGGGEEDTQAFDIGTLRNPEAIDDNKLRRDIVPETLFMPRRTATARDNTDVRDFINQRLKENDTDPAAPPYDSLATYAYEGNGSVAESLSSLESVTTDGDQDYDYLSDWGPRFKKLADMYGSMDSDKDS

β-catenin (endogenous, LMH cells) (natural protein)
percent inhibition of β-catenin co-immunoprecipitation against wild-type CTF2: 87.5%
